± gives the uncertainty stated by the source.

The series in a line: amyloid nucleation score (Sup35N fusion, yeast selection) (log enrichment); library NNK3; higher = more nucleation; inactive = no reads after selection. The method, boiled down: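 Using DiMSum, nucleation scores were taken as the log enrichment of output over input reads, centred on the mode score of non-aggregating sequences. The input and output reads came from Illumina sequencing of plasmid inserts, with sequences under 100 input reads excluded. The yeast were psi-negative, expressed Sup35N fused to peptides of 20 random codons, were induced with 100 μM copper sulfate for 24 hours, and were grown 7 days at 30°C on medium lacking adenine and uracil.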
For TRLLAGFSWYVTFPVNVSGS, the amyloid nucleation score entry is “inactive”.
The result for YKYVFHPIFFDQGT reads “inactive”; that for NWDFFKLKVNSHLTYAHDHR, “inactive”.
The result for ASLRWVLRLCRNLHTSSMET reads -0.824 ± 1.5.
Consider RSRKKRCFLKFILKNFVWSV, for which the amyloid nucleation score result is “inactive”.
The result for CGVSLDRWSNMQ reads “inactive”; that for MGSSFGGVLVSISVSWGCGF, -0.012 ± 0.51.
In the case of NSVVSGFLGHVLVGRRCGHR, the amyloid nucleation score entry was “inactive”.
To ANSNVGSLF belongs “inactive”.
The result for SDYLRMVVTYPQTLLYQGTK reads “inactive”; that for DSFRHEGRVWLWYSSTTKRF, “inactive”.
With LCMAFNVIPQTSFLALKASC, the amyloid nucleation score result was “inactive”.
The result for YWRELDSIQCNLFRGQPFNL reads “inactive”; that for SSMAVQRGGNYITMIYGH, “inactive”.
For LVSVGSDWDCLHFISGKFPG, the amyloid nucleation score result was “inactive”.
To SHKFMRCGPQMASGCNWELA belongs “inactive”; to YYLVDRWREFVGYRKKDCVA, “inactive”.
LRHGSSEFNYGNFFLCLFEQ returned an amyloid nucleation score of 2.56 ± 0.075.
To LRRQTSHKS belongs “inactive”.
In turn, TSCFYFAMVFEQVDWDSVHT yielded an amyloid nucleation score of 1.58 ± 0.11.
Turning to RTSLYICINKRTLSHRLFPC, the amyloid nucleation score entry was “inactive”.
To RSMVGWACYLSWRFA belongs “inactive”; to YLISNVFIVLSVDLCDVLGL, 2.44 ± 0.072; to CEVHEGWIA, “inactive”.
Consider RKFGWIRVAWCSKRIVYYSK, for which the amyloid nucleation score was -0.324 ± 0.62.
The result for GGCGGVKHAHYNTIEY reads “inactive”.
The result for TPLITYHQWFLAICEWLDF reads “inactive”; that for RLNWGFTLA, “inactive”; that for SRCNIFGRPSASIAR, “inactive”.
In the case of MALSRILTALVVLLLTVVVC, the amyloid nucleation score entry was “inactive”.
The result for MIQGSVYPFHLCHLYDISHE reads “inactive”.
The result for SRSLWTLNIVFRHDCYTGKL reads -0.05 ± 0.57; that for YVSRDVGNRNATSY, “inactive”.
The result for IRLKQQDFEGSGKLFNGGHL reads “inactive”; that for LNSDIVVNLNIAWSYCIV, 1.39 ± 0.068.
On to AWYKFVGRVMRDPYMEARLA, for which the amyloid nucleation score entry is “inactive”.
To DTLPHAVKLIEKM belongs “inactive”; to SLLCNHFPGHI, “inactive”.
On to FLQECRDCQGTVRNKSSAP, for which the amyloid nucleation score entry is “inactive”.
The result for VGDLLCPIASLGSRRNLWCR reads “inactive”; that for HVSQTWLGRGADSGHWPRQG, 0.325 ± 0.46.
Regarding QYCSSCLLWCMKSQGLDMTR, the amyloid nucleation score entry is “inactive”.
As to ALNDLLAYSLSSKSFSYNWI, the amyloid nucleation score result was “inactive”.
To TTSLKTHVLPRNVFRFEPYM belongs “inactive”; to TWATVTMVWCLNVNSVDTGL, 2.26 ± 0.094; to RRLQV, “inactive”.
Turning to CRINEWLGIGNSVSSSDHMG, the amyloid nucleation score result was “inactive”.
The result for ISCRMYLCCQVLTSSCTWSH reads 1.34 ± 0.11.
The result for CMFSPPCDLRGETVLRRPSL reads 0.143 ± 0.62; that for YVFFIVMASSCWHVHSYNYF, -0.437 ± 0.98; that for HTWSCCYFLS, 2.54 ± 0.063.
To CMQLVMSYTVCFVDGGVLA belongs “inactive”; to NRIGSKTCKFFMALGM, “inactive”.
As for GYNFNEENINMLHQREFSLS, the amyloid nucleation score entry was “inactive”.
To HLWHSVWYALRDSPSLGFFI belongs “inactive”; to DSIVICQFIFDIKFLDKRKC, 1.77 ± 0.085; to LVNGTFNFSDHAESESCSHS, “inactive”.
The result for NCLRLYQGSGKMFIIV reads “inactive”; that for KFVDDRKVCLVLHH, “inactive”.
The result for MCFGKYLSL reads “inactive”; that for CCWRNLYSFLRKGSYSRCM, “inactive”; that for IRRCPGMKVCWLYLKC, “inactive”.
Take RESVTSPILILSWEGISRCH: the amyloid nucleation score entry was “inactive”.
To GVGATATTFWGVRWVRRSTN belongs “inactive”.
For the substance IDCILVTGLHVDLLEWQKRQ, the amyloid nucleation score amounted to 2.03 ± 0.086.
The result for PTCGMDFVLQEYTKT reads “inactive”; that for VVRCLLFVQLGCSKNLVAFQ, 1.12 ± 0.12; that for SIPLLTQMWTVNGNRRWQTA, “inactive”.
With AEWGFVGGIYWYLRKVPRSH, the amyloid nucleation score result is “inactive”.
The result for WGMTNSETGLVGWSLSKLLG reads “inactive”; that for TCMHC, “inactive”.
For RTWNVESFREFGCFKINLGP, the amyloid nucleation score result was “inactive”.
To NFMCFLVFHDLYEGQGYELR belongs 2.3 ± 0.089.
The result for WTRVFLRTKGRSEFLLRWPL reads “inactive”.
With ESDAFKLCAYDLNIMNISRF, the amyloid nucleation score result is “inactive”.
To VFEVEPNLGIGYSAKACNVG belongs “inactive”; to HYSAFTRQSVSSKDTDT, -0.582 ± 0.76; to RTIQFPS, “inactive”.
With VCCSYY, the amyloid nucleation score is 1.32 ± 0.11.
Consider NYSMNARGPVKDLAVFGSRG, for which the amyloid nucleation score result is “inactive”.
Regarding MCPPVSGNG, the amyloid nucleation score result is “inactive”.
The substance GNIAELVSGREVYNYVN came in with an amyloid nucleation score of -0.075 ± 0.9.
In the case of PTNTNCLNVLG, the amyloid nucleation score entry is “inactive”.
As to FLRYGCMHYLGRMGLY, the amyloid nucleation score is -0.079 ± 0.34.
Take MKKWDNNSLVLPLKGSGKED: the amyloid nucleation score result was “inactive”.
For the substance MYYRTRQELTSCPRNQNIL, the amyloid nucleation score was -0.069 ± 0.85.
The result for ESRKWAAEGPSFICTCLLSL reads “inactive”; that for FQFCS, “inactive”; that for VGESDKLHFAH, “inactive”.
With HWTGVAELLAGYCV, the amyloid nucleation score result is “inactive”.
SLCLYNSFLSSL: the amyloid nucleation score entry is “inactive”.
For the substance FIRFWASVSTNCRLPFLLNR, the amyloid nucleation score result is “inactive”.
QVSFFSQIRV: the amyloid nucleation score entry was “inactive”.
In turn, SFTAYVASLA yielded an amyloid nucleation score of -0.151 ± 1.1.
As to LGNSPVHST, the amyloid nucleation score entry is “inactive”.
In turn, FRPGLYSYMPSC gave an amyloid nucleation score of -0.451 ± 0.88.
For the substance FFISDVGETC, the amyloid nucleation score result was “inactive”.
The result for SVDFVIPGSVKSVRFVVELV reads “inactive”.
The result for IKDGFQGNVFFAVDCFVAYD reads “inactive”.
To NIVLFGKRVNFFYLTNDVVK belongs 1.97 ± 0.067; to ASTEKGGPNDGTCWYPYCTA, “inactive”; to EVPNFYNLPSWSA, “inactive”.
As to LYPVTKR, the amyloid nucleation score result is “inactive”.
To VCANLSWPFLSNTLLFVCLG belongs “inactive”.
To SYYVICGTLMIIVVYFSSYN belongs 1.02 ± 0.093.
The result for CAYRLNVGSVRFGKMHPRRS reads “inactive”; that for FYSCKSTAGCSTTIEGARNY, “inactive”.
For the substance KGGDELYFEELDEWSQGSRR, the amyloid nucleation score entry was “inactive”.
For the substance CLSLLNFDVCVMRSVVRVFA, the amyloid nucleation score entry is “inactive”.
To VCTPNRCLSTLSR belongs “inactive”; to YLMVSVNFFSYVLSESRMCG, 0.85 ± 0.12; to IEGVGCIFRDLGDFLRGPWG, “inactive”.
In the case of YSFWIVFMRY, the amyloid nucleation score result is “inactive”.
The result for RFKMAYFKNTAYLFNNANSV reads “inactive”; that for CVVVETLLNMRRSRY, “inactive”; that for NSLLGHF, “inactive”.
In the case of SRFRGAI, the amyloid nucleation score entry is “inactive”.
The result for GCFSSSESTIWGGAVDAKVS reads “inactive”; that for CVKVGDGCLHASIGAR, “inactive”; that for NMVSFWN, “inactive”.
On to LGSAGYSSQGLWCLVLRVPL, for which the amyloid nucleation score entry was “inactive”.
To NFLGAFRIPRLLRSLVALYL belongs “inactive”; to INEWFGSKDFAETGHLEVRY, “inactive”.
To YSSGGYLTRVRRKGSMYRAL belongs “inactive”; to IPFGLANSRFNVFASVMSDC, “inactive”; to MRSNSTVYGTFTRSNVLHIP, “inactive”.
Consider RCYKKVYLMLAVRLAPFGLG, for which the amyloid nucleation score entry is “inactive”.
To RRYVSSDFFLSAWWTVS belongs “inactive”; to DRAFYYTLKYLRD, “inactive”.
For LSMCAVFDRYLWVGSGDITY, the amyloid nucleation score entry is “inactive”.

The values above are taken from the supplement of paper PMC12042874.
